Legend:
[1] = target: FAM-labeled calmodulin T34C (UniProt P0DP23); assay: fluorescence polarisation; fluorescence anisotropy; 30 nM FAM-CaM with Ca2+, titrated with a twofold dilution series of iPLA2β; 25 mM HEPES 7.5, 150 mM NaCl, 10% glycerol; 15 min at 25 °C
[2] = target: Calcium-independent phospholipase A2β, short variant (SH-iPLA2β, 752 amino acids), wild type (Chinese hamster (gene cloned from CHO cells)); assay: AUC; sedimentation velocity, 20 °C, 35,000 rpm, absorbance at 280 nm; 25 mM HEPES 7.5, 500 mM NaCl, 10% glycerol; c(s) model in SEDFIT
[3] = target: Calcium-independent phospholipase A2β, short variant (SH-iPLA2β, 752 amino acids), wild type (Chinese hamster (gene cloned from CHO cells))

Work on “Calcium-independent phospholipase A2β, short variant (SH-iPLA2β, 752 amino acids), wild type (enzyme)” yielded a Kd [1] of 112 nM and a stoichiometry N [2] of 2.
With “Calmodulin (CaM), unmodified (from UniProt P0DP23 1-149) (natural protein)” the Ki of inhibition of iPLA2β enzymatic activity by CaM in the presence of Ca2+ (fluorogenic assay with Pyrene-PC liposomes) [3] was 23 nM.
For iPLA2β W695E mutant (enzyme), the Kd [1] was over 1400 nM.
